Laboratory results as given in US20030166216.

Tests used:
[1] = system: mylein basic protein (MBP)
[2] = system: poly (Arg, Pro, Thr) 6:3:1
[3] = system: protein kinase C (PKC) substrate

B1: human checkpoint kinase (hChk1) (enzyme)
chain: MAVPFVEDWDLVQTLGEGAYGEVQLAVNRVTEEAVAVKIVDMKRAVDCPENIKKEICINKMLNHENVVKFYGHRREGNIQYLFLEYCSGGELFDRIEPDIGMPEPDAQRFFHQLMAGVVYLHGIGITHRDIKPENLLLDERDNLKISDFGLATVFRYNNRERLLNKMCGTLPYVAPELLKRREFHAEPVDVWSCGIVLTAMLAGELPWDQPSDSCQEYSDWKEKKTYLNPWKKIDSAPLALLHKILVENPSARITIPDIKKDRWYNKPLKKGAKRPRVTSGGVSESPSGFSKHIQSNLDFSPVNSASSEENVKYSSSQPEPRTGLSLWDTSPSYIDKLVQGISFSQPTCPDHMLLNSQLLGTPGSSQNPWQRLVKRMTRFFTKLDADKSYQCLKETCEKLGYQWKKSCMNQVTISTTDRRNNKLIFKVNLLEMDDKILVDFRLSKGDGLEFKRHFLKIKGKLIDIVSSQKVWLPAT
modifications: possible His tag
in vitro protein kinase phosphorylation assay ([gamma-33P]ATP incorporation, cpm) (cAMP substrate): significant activity was also found with ... cAMP substrate | in vitro protein kinase phosphorylation assay ([gamma-33P]ATP incorporation, cpm) (calmodulin substrate): hChk1 showed the highest phosphorylating activity using a calmodulin substrate or the synthetic peptide substrate, poly (Arg, Ser) 3:1 | in vitro protein kinase phosphorylation assay ([gamma-33P]ATP incorporation, cpm) (casein): significant activity was also found with ... casein | in vitro protein kinase phosphorylation assay ([gamma-33P]ATP incorporation, cpm) [1]: significant activity was also found with mylein basic protein (MBP) | in vitro protein kinase phosphorylation assay ([gamma-33P]ATP incorporation, cpm) [2]: significant activity was also found with ... poly (Arg, Pro, Thr) 6:3:1 | in vitro protein kinase phosphorylation assay ([gamma-33P]ATP incorporation, cpm) (poly (Arg, Ser) 3:1): hChk1 showed the highest phosphorylating activity using a calmodulin substrate or the synthetic peptide substrate, poly (Arg, Ser) 3:1 | in vitro protein kinase phosphorylation assay ([gamma-33P]ATP incorporation, cpm) [3]: significant activity was also found with ... protein kinase C (PKC) substrate
